Results taken from the Human Domainome abundance scans (Beltran et al. 2025).

B1: Myocardin-related transcription factor A, residues 341 to 383; numbered along this chain, Q969V6 (parent)
chain: GALPANLDDMKVAELKQELKLRSLPVSGTKTELIERLRAYQDQ

Variants of: B1
Test: abundance fitness (aPCA) (normalised: wild type 0, dead -1); higher = more abundant; growth selection in yeast, the domain comes from the species named
Details: Homo sapiens

Abundance fitness: each site, then its substitutions
P25: H -0.875 | I 0.319 | K -0.135 | L -0.542 | Q -0.167 | R -0.304 | S -0.165 | V -0.358 | W -0.808 | Y -0.293
V26: A 0.18 | C -0.223 | E 0.168 | F -0.033 | G -0.038 | H -0.265 | K -0.195 | L 0.229 | M -0.032 | N -0.466 | P 0.191 | Q 0.155 | R -0.129 | S -0.035 | W -0.538 | Y -0.031
S27: A 0.181 | C -0.201 | D 0.11 | E 0.043 | G -0.012 | K -0.196 | L -0.376 | M -0.286 | P -0.08 | Q -0.424 | R -0.186 | T -0.196 | V -0.251 | W -0.115 | Y -0.136
G28: A -1.02 | C -0.608 | D -0.758 | E -0.628 | H -1.18 | K -0.862 | L -1.06 | M -0.957 | P -1.13 | Q -0.659 | S -0.85 | T -1.56 | V -1.38 | W -1.03 | Y -0.626
T29: C -0.198 | D -0.147 | E 0.009 | H -0.142 | I -0.362 | K -0.092 | L -0.376 | M -0.447 | Q 0.157 | R -0.196 | S -0.084 | V -0.26 | W -0.601 | Y -0.44
K30: A -0.403 | D -0.478 | E -0.269 | F -0.463 | G -0.494 | H -0.217 | I -0.158 | M -0.332 | N -0.343 | P -0.242 | Q -0.092 | R 0.024 | S -0.231 | T -0.091 | V -0.509 | W -0.6
T31: A 0.098 | D 0.005 | E 0.085 | G -0.011 | H -0.129 | I 0.092 | K -0.141 | L -0.145 | M -0.089 | N -0.332 | P -0.074 | Q -0.138 | R 0.012 | S -0.061 | V -0.035 | W -0.246 | Y -0.193
E32: A -0.053 | C -0.17 | G -0.606 | H -0.375 | I -0.149 | K -0.198 | L -0.472 | M -0.239 | N -0.357 | P -0.533 | Q -0.038 | R -0.319 | T -0.143 | V -0.093 | W -1.15 | Y -0.669
L33: A -0.261 | G -0.224 | K -0.315 | M 0.046 | N 0.592 | P -0.403 | Q -0.128 | R -0.617 | S -0.067 | T -0.283 | V -0.249
I34: A -0.187 | C -0.139 | D -0.546 | E -0.151 | G -0.305 | H -0.186 | K -0.031 | L -0.146 | M -0.144 | Q 0.116 | R -0.146 | T -0.151 | V -0.21 | W -0.363 | Y 0.017
E35: A 0.23 | F -0.242 | G 0.041 | I -0.174 | K 0.035 | L 0.026 | P -0.505 | Q 0.398 | R -0.047 | S 0.109 | T -0.173 | V -0.171 | W -0.19 | Y 0.166
R36: A -0.128 | C -0.128 | E -0.529 | G -0.188 | I -0.728 | K -0.234 | L -0.416 | M -0.395
